Article PMC7249735

Target: Maltose binding protein (MBP) (UniProt P0AEX9 27-396)
Test: ELASA; 500 nM aptamer; PBS (137 mM NaCl, 2.7 mM KCl, 10 mM Na2HPO4, 1.8 mM KH2PO4, pH 7.4); ELASA 30 min at 4 C after 3% BSA block; sandwich capture in PBS, temperature not stated

B1: A-aptamer-ELASA (modified B11) (ssDNA)
DNA: TTCTTTTATTAGTTGATTTTTTTGATTTTGGCAGCTACTGCTTTGGGGGTGCTGAGGCGAAGGACGCAGATGAAGTCTC
modifications: 3' biotin
Does B1 bind?
Result: no binding
